The source of these data is article PMC5766252, “Indole-3-acetaldehyde dehydrogenase-dependent auxin synthesis contributes to virulence of Pseudomonas syringae strain DC3000” (PLoS Pathogens, 2018).

One series deals with T1, AldA (Pseudomonas syringae group genomosp. 3, UniProt Q88BC5).
T1 construct: gene PSPTO_0092; full-length, N-terminal hexahistidine tag (pET28a, NdeI/XhoI), E. coli BL21(DE3); tetramer; catalytic Cys302
In words: X-ray crystal structure of complex. It counts as binding. As to conditions: pH 8.5.

The subject of series [1] is NC(=O)c1ccc[n+]([C@@H]2O[C@H](COP(=O)(O)OP(=O)(O)OC[C@H]3O[C@@H](n4cnc5c(N)ncnc54)[C@H](OP(=O)(O)O)[C@@H]3O)[C@@H](O)[C@H]2O)c1. In words: purified protein. As to conditions: 1.0 mM IAAld, 100 mM Tris-HCl pH 8.0, 100 mM KCl, 25 °C, NADP+ varied, varied: cofactor.
The next series concerns O=CCc1c[nH]c2ccccc12. Put plainly: purified protein. As to conditions: 1.0 mM NAD+, 100 mM Tris-HCl pH 8.0, 100 mM KCl, 25 °C, IAAld varied 0.05-2.5 mM.
Series [2] deals with NC(=O)c1ccc[n+]([C@@H]2O[C@H](COP(=O)(O)OP(=O)(O)OC[C@H]3O[C@@H](n4cnc5c(N)ncnc54)[C@H](O)[C@@H]3O)[C@@H](O)[C@H]2O)c1. In words: purified protein. The conditions noted are these: 1.0 mM IAAld, 100 mM Tris-HCl pH 8.0, 100 mM KCl, 25 °C, NAD+ varied, varied: cofactor.
For series [3], the target named is Aldehyde dehydrogenase AldB (PSPTO_2673) (Pseudomonas syringae pv. tomato strain DC3000). In words: SEC; His-tagged protein on a Superdex-200 26/60 column in 25 mM Hepes (pH 7.5), 100 mM NaCl; column calibrated with molecular weight standards.
For series [4], the target named is Aldehyde dehydrogenase AldC (PSPTO_3644) (Pseudomonas syringae pv. tomato strain DC3000). The description is as above.
Series [5] deals with the molecule itself. The series is described as above.

For `O=C(O)Cc1c[nH]c2ccccc12` [IAA], the “X-ray crystal structure of complex” value on AldA (5 mM NAD+ and 5 mM IAA, dead-end ternary complex, 1.93 Å, substrate site near Cys302) is “AldA (5IUU); AldA•NAD^+ (5IUV); and AldA•NAD^+•IAA (5IUW)”.
Consider `NC(=O)c1ccc[n+]([C@@H]2O[C@H](COP(=O)(O)OP(=O)(O)OC[C@H]3O[C@@H](n4cnc5c(N)ncnc54)[C@H](O)[C@@H]3O)[C@@H](O)[C@H]2O)c1` [NAD^+], for which the “X-ray crystal structure of complex” value at AldA (5 mM NAD+, cofactor binding site, also in the ternary complex 5IUW) is “AldA (5IUU); AldA•NAD^+ (5IUV); and AldA•NAD^+•IAA (5IUW)”.
“AldA (Pseudomonas syringae pv. tomato str. DC3000)”: the values for the Km (in series [1]; in the series with O=CCc1c[nH]c2ccccc12; in series [2]) were 1,960 ± 182 µM, 119 ± 37 µM and 42 ± 8 µM, respectively. Also, the kcat (in general, the number of substrate molecules converted per active site and unit of time at saturation) in series [1] was 0.5 ± 0.0167 s⁻¹; in the series with O=CCc1c[nH]c2ccccc12 it was 3.9 ± 0.35 s⁻¹; in series [2], 3.23 ± 0.15 s⁻¹. In addition, the catalytic efficiency (kcat/Km) (in general, the second-order rate constant that governs catalysis at low substrate concentration) in series [1] was 252 M⁻¹ s⁻¹; in the series on O=CCc1c[nH]c2ccccc12, 32800 M⁻¹ s⁻¹; in series [2] it was 77400 M⁻¹ s⁻¹.
In the case of “AldB (Pseudomonas syringae pv. tomato str. DC3000)”, in the series on O=CCc1c[nH]c2ccccc12, the Km (usually the concentration of substrate that gives half-maximal velocity) is given as 595 ± 39 µM, the kcat was found to be 0.145 ± 0.00333 s⁻¹ and the catalytic efficiency (kcat/Km) was 244 M⁻¹ s⁻¹. Besides, in series [2], the Michaelis-Menten constant (Km) stood at 33.4 ± 9.2 µM, the turnover number (kcat) was found to be 0.035 ± 0.00167 s⁻¹ and the kcat/Km worked out at 1040 M⁻¹ s⁻¹.
“AldC (Pseudomonas syringae pv. tomato str. DC3000)”: in the series on O=CCc1c[nH]c2ccccc12, the Michaelis constant (Km) is 1,280 ± 161 µM, the kcat worked out at 0.06 ± 0.00333 s⁻¹ and the kcat/Km was 46 M⁻¹ s⁻¹. In series [2], the Km was found to be 445 ± 99 µM, the kcat was 0.00667 ± 0.000167 s⁻¹ and the catalytic efficiency (kcat/Km) was 14 M⁻¹ s⁻¹.
For “Aldehyde dehydrogenase AldB (PSPTO_2673) (enzyme)”, the stoichiometry N (commonly the number of molecules, sites or subunits per partner or assembly) in series [3] stood at 4.
“Aldehyde dehydrogenase AldC (PSPTO_3644) (enzyme)” registered a stoichiometry N in series [4] of 2.

B1: Indole-3-acetaldehyde dehydrogenase AldA (PSPTO_0092) (enzyme)
chain: MTTLTRADWEQRAQNLKIEGRAFIQGEYTAAASGETFDCISPVDGRLLAKVASCDAADAQRAVESARSAFDSGAWSRLAPAKRKATMIRFAGLLEQNAEELALLETLDMGKPISDSLGVDIPGGARALSWSGEAIDKLYDEVAATPHDQLGLVTREPVGVVAAIVPWNFPLMMACWKLGPALSTGNSVVLKPSEKSPLTAIRIAQLAIEAGIPAGVLNVLPGYGHTVGKALALHMDVDTVVFTGSTKIAKQLMIYAGESNMKRVWLEAGGKSPNIVFADAPDLQAAADSAASAIAFNQGEVCTAGSRLLVERSIKDRFLPMVIEALGTWKPGNPLDPATNVGALVDTQQMNTVLSYIAAGHTDGARLVAGGKQILQETGGTYVEPTIFDGVNNAMRIAQEEIFGPVLSVLTFDTAEEAIQIANDTPYGLAAAVWTANLSKAHLTARALRAGSVWVNQYDGGDMTAPFGGFKQSGNGRDKSLHAFDKYTELKSTWIKL
notes: AldA (PSPTO_0092), aldehyde dehydrogenase of Pseudomonas syringae pv. tomato strain DC3000; estimated Mr 52.7 kDa without the tag; The full-length CDS is stated for the pET21a-0092 construct; pET28a-AldA was made with the same NdeI and XhoI sites; also called IAAld dehydrogenase; source: E. coli BL21 (DE3), pET28a-AldA, purified (Ni-NTA, Superdex-200 size exclusion); not shown: His6, N-terminal, …
As for B1, the “stoichiometry N” value in series [5] came to 4.
